{"source": "patent US20230416402A1", "about": "(DRAGONFLY THERAPEUTICS, published 2023)", "binders": {"B1": {"name": "A49-F3′-TriNKET-Trastuzumab (bispecific antibody, human IgG1)", "heavy": "EVQLVESGGGLVKPGGSLRLSCAASGFTFSSYSMNWVRQAPGKGLEWVSSISSSSSYIYYADSVKGRFTISRDNAKNSLYLQMNSLRAEDTAVYYCARGAPMGAAAGWFDPWGQGTLVTVSSASTKGPSVFPLAPSSKSTSGGTAALGCLVKDYFPEPVTVSWNSGALTSGVHTFPAVLQSSGLYSLSSVVTVPSSSLGTQTYICNVNHKPSNTKVDKKVEPKSCDKTHTCPPCPAPELLGGPSVFLFPPKPKDTLMISRTPEVTCVVVDVSHEDPEVKFNWYVDGVEVHNAKTKPREEQYNSTYRVVSVLTVLHQDWLNGKEYKCKVSNKALPAPIEKTISKAKGQPREPQVCTLPPSRDELTENQVSLTCLVKGFYPSDIAVEWESNGQPENNYKTTPPVLDSDGSFFLYSWLTVDKSRWQQGNVFSCSVMHEALHNHYTQKSLSLSPG", "chain": "not shown", "light": "DIQMTQSPSSVSASVGDRVTITCRASQGISSWLAWYQQKPGKAPKLLIYAASSLQSGVPSRFSGSGSGTDFTLTISSLQPEDFATYYCQQGVSFPRTFGGGTKVEIKRTVAAPSPPSDEQLKSGTASVVCLLNNFYPREAKVQWKVDNALQSGNSQESVTEQDSKDSTYSLSSTLTLSKADYEKHKVYACEVTHQGLSSPVTKSFNRGEC"}}, "target": "HER2 (human, UniProt P04626 23-1255)", "assay": "cell-based or functional assay"}
{"binder": "B1", "values": [{"measurement": "EC50 in KHYG-1-CD16V cell killing of Hs578T cells (DELFIA cytotoxicity assay)", "value": 0.376, "unit": "nM"}, {"measurement": "EC50 in KHYG-1-CD16V cell-mediated cytolysis of BT-20 cells (DELFIA cytotoxicity assay)", "value": 1.16, "unit": "nM"}, {"measurement": "EC50 in NK cell-mediated killing of MCF-7 cells (DELFIA cytotoxicity assay)", "value": 0.878, "unit": "nM"}, {"measurement": "EC50 in NK cell-mediated lysis of ZR75-1 cells (DELFIA cytotoxicity assay)", "value": 0.043, "unit": "nM"}, {"measurement": "EC50 in enhancing NK cell-mediated cytolysis of SKBR-3 cells (DELFIA cytotoxicity assay, 3 healthy donors)", "value": 0.008, "unit": "nM"}, {"measurement": "EC50 in inducing NK cell-mediated lysis of 786-0 cells (DELFIA cytotoxicity assay)", "value": 0.638, "unit": "nM"}, {"measurement": "EC50 in triggering NK cell-mediated killing of H661 cells (DELFIA cytotoxicity assay)", "value": 0.054, "unit": "nM"}, {"measurement": "fold higher potency than trastuzumab in triggering NK cell-mediated killing of SKBR-3 cells", "value": 2.5, "unit": "fold"}]}
